{
  "source": "patent US10603364B2",
  "about": "“Lysosomal targeting and uses thereof” (Shire Human Genetic Therapies, Inc., priority 2014, dated 2020)",
  "molecules": {"B1": {"name": "Naglu-SPP: Fusion protein of human Naglu and SORT1 propeptide (SPP) via GAG3 linker; SEQ ID NO:17 (full-length), SEQ ID NO:22 (protein)", "chain": "MEAVAVAAAVGVLLLAGAGGAAGDEAREAAAVRALVARLLGPGPAADFSVSVERALAAKPGLDTYSLGGGGAARVRVRGSTGVAAAAGLHRYLRDFCGCHVAWSGSQLRLPRPLPAVPGELTEATPNRYRYYQNVCTQSYSFVWWDWARWEREIDWMALNGINLALAWSGQEAIWQRVYLALGLTQAEINEFFTGPAFLAWGRMGNLHTWDGPLPPSWHIKQLYLQHRVLDQMRSFGMTPVLPAFAGHVPEAVTRVFPQVNVTKMGSWGHFNCSYSCSFLLAPEDPIFPIIGSLFLRELIKEFGTDHIYGADTFNEMQPPSSEPSYLAAATTAVYEAMTAVDTEAVWLLQGWLFQHQPQFWGPAQIRAVLGAVPRGRLLVLDLFAESQPVYTRTASFQGQPFIWCMLHNFGGNHGLFGALEAVNGGPEAARLFPNSTMVGTGMAPEGISQNEVVYSLMAELGWRKDPVPDLAAWVTSFAARRYGVSHPDAGAAWRLLLRSVYNCSGEACRGHNRSPLVRRPSLQMNTSIWYNRSDVFEAWRLLLTSAPSLATSPAFRYDLLDLTRQAVQELVSLYYEEARSAYLSKELASLLRAGGVLAYELLPALDEVLASDSRFLLGSWLEQARAAAVSEAEADFYEQNSRYQLTLWGPEGNILDYANKQLAGLVANYYTPRWRLFLEALVDSVAQGIPFQQHQFDKNVFQLEQAFVLSKQRYPSQPRGDTVDLAKKIFLKYYPRWVAGSWGAPGGGGGAAAAAGGGGGGAPGGGGGAAAAAGGGGGGAPGGGGGAAAAAGGGGGGAPQDRLDAPPPPAAPLPRWSGPIGVSWGLRAAAAGGAFPRGGRWRR"}},
  "key": {"Naglu KO mice [1]": {"tested_on": "Naglu KO mice", "assay": "Immunohistochemical staining of Lamp-1, GFAP and Iba-1 in brain and liver", "type": "in vivo", "conditions": "intrathecal", "description": "(§1) To evaluate the in vivo activity of Naglu-SPP and its efficacy as a therapeutic for the treatment of lysosomal storage diseases, particularly San B, Naglu-SPP was administered to Naglu KO mice via intrathecal injection. Intrathecal administration of Naglu-IGFII served as a positive control. The experimental conditions used for this assay are described in Tables 10 and 11 below.\nThe lysosomal targeting of Naglu-SPP and Naglu-IGFII was further examined by immunohistochemical analysis. Tissue samples were collected, fixed in 10% NBF and processed for paraffin embedding. For each tissue assayed, 5 μm paraffin sections was subjected to immunostaining using antibodies against lamp lysosomal associated membrane protein 1 (Lamp-1), glial fibrillary acidic protein (GFAP) and the ionized calcium-binding adapter molecule 1 (Iba-1)."}, "Naglu KO mice [2]": {"tested_on": "Naglu KO mice", "assay": "Total glycosaminoglycan (GAG) in liver and brain, dimethylmethylene blue", "type": "in vivo", "conditions": "intrathecal, 520 mg/kg brain; brain significant in 2× and 3× weekly groups", "description": "as §1\nThe activity of Naglu-SPP and Naglu-IGFII in vivo was also evaluated by examining the intracellular accumulation of natural substrates of Naglu in treated mice. One such assay was designed to evaluate the total concentration of glycosaminoglycan (GAG) in liver (FIG. 11A) and brain (FIG. 11B) tissue of treated mice in accordance with de Jong et al. (Clin Chem 38(6):803-807, 1992). Briefly, liver tissue was homogenized and total GAG quantified using dimethylmethylene blue. Brain tissue was homogenized and then incubated with pronase and benzonase to break down protein and nucleic acid. Total GAG was then extracted by passing the brain homogenate through a DEAE column. The eluate was further buffer exchanged through a desalting column, and the total GAG content was quantified using dimethylmethylene blue. […] The reduction of total GAG amount in brain tissue was significant in the 2× weekly as well as the 3× weekly treatment groups."}, "wild-type rats [3]": {"tested_on": "wild-type rats", "assay": "Naglu enzyme activity in liver and brain after intrathecal administration (biodistribution)", "type": "in vivo", "conditions": "385 ug/animal", "description": "(§2) To evaluate biodistribution of the SORT1-binding Naglu fusion proteins, an in vivo study was conducted using wild-type rats subjected to intrathecal administration of vehicle control (PBS), rhNaglu, Naglu-IGFII, Naglu-SPP, Naglu-SapDC or Naglu-tPRGN. Details of the experimental design are provide in Table 9 below. Previous experiments had shown that Naglu-IGFII but not rhNaglu penetrates into brain tissue and is targeted to lysosomes after intrathecal injection. Accordingly, rhNaglu and Naglu-IGFII were utilized in this study as negative and positive controls, respectively.\nRats were sacrificed either 4 or 24 hours post intrathecal administration of the respective fusion protein and total Naglu enzyme activity in the animals' liver and brain tissue was determined using a well-established enzyme activity assay (FIGS. 7A and B). Briefly, brain and liver tissue homogenates were prepared and incubated in the presence of a Naglu specific substrate, i.e., methylumbelliferyl-N-acetyl-α-D-glucosainide; accumulation of cleavage product was then measured by examining fluorescence intensity at 360/460 nm (excitation/emission) using a fluorescent plate reader."}, "[4]": {"tested_on": "SORT overexpressing cells", "assay": "Immunofluorescence microscopy of cellular entry and lysosomal targeting (Naglu / Lamp-1)", "type": "cell-based", "description": "Studies were carried out using immunofluorescence microscopy to evaluate cellular entry and lysosomal targeting. For these studies, SORT overexpressing cells were treated with vehicle control or Naglu-SPP and then fixed and prepared for staining. Both vehicle control (FIG. 6A) and Naglu-SPP (FIG. 6B) treated cells were stained using antibodies specific for human Naglu and Lamp-1, a lysosome-specific protein biomarker."}, "wild-type rats [5]": {"tested_on": "wild-type rats", "assay": "Immunohistochemistry of Naglu protein in brain tissue after intrathecal administration", "type": "in vivo", "description": "as §2\nRats were sacrificed either 4 or 24 hours post intrathecal administration of the respective fusion protein. Brain tissue samples were collected, fixed in 10% NBF and processed for paraffin embedding. 5 μm paraffin sections from each tissue assayed were subjected to immunostaining using an anti-human Naglu antibody."}, "[6]": {"tested_on": "SORT1 overexpressing cells", "assay": "Cellular uptake in Sortilin overexpressing cells (intracellular Naglu enzyme activity)", "type": "cell-based", "conditions": "absence of Neurotensin", "description": "A cell line was established overexpressing SORT1, using standard technologies known in the art. […] After a specified period of time, the supernatant was removed and the cells were washed repeatedly. Then, cells were lysed and each sample was assayed for Naglu enzyme activity."}, "Naglu KO mice [7]": {"tested_on": "Naglu KO mice", "assay": "Naglu enzyme activity in tissues of Naglu KO mice after intrathecal administration", "type": "in vivo", "conditions": "520 mg/kg brain, 24 hrs post final dose", "description": "as §1\n24 hours after intrathecal administration of each respective fusion protein, Naglu KO mice were sacrificed and Naglu enzyme activity in various tissues was assayed. Total Naglu activity was evaluated using a well-established enzyme activity assay. Briefly, tissue homogenate was incubated in the presence of the Naglu specific substrate methylumbelliferyl-N-acetyl-α-D-glucosainide, and accumulation of cleavage product was measured by examining fluorescence intensity at 360/460 nm (excitation/emission) using a fluorescent plate reader. […] This increase in enzyme activity was observed over the duration of the 3 week treatment period."}},
  "data": [
    {"molecule": "B1", "values": [
      {"measurement": "Lamp-1 immunostaining in brain (cerebral cortex, cerebellum, thalamus, striatum, white matter)", "setting": "Naglu KO mice [1]; 2× weekly and 3× weekly", "result": "decrease"},
      {"measurement": "Lamp-1 immunoreactivity in liver", "setting": "Naglu KO mice [1]; three weekly deliveries", "result": "reduced significantly"},
      {"measurement": "GFAP staining in cerebral cortex and cerebellum (astrocytes)", "setting": "Naglu KO mice [1]; three weekly injections", "result": "reduced signal"},
      {"measurement": "Iba-1 staining in cerebral cortex and cerebellum (microglial cells)", "setting": "Naglu KO mice [1]; three weekly injections", "result": "microglial cells are reduced in size and have a smaller number of processes"},
      {"measurement": "total GAG concentration in liver and brain tissue vs vehicle control", "setting": "Naglu KO mice [2]", "result": "significant reduction"},
      {"measurement": "rank of Naglu enzyme activity in brain among treatments", "setting": "wild-type rats [3]", "result": "highest activity"},
      {"measurement": "Naglu enzyme activity in brain", "setting": "wild-type rats [3]; 4 or 24 hours post dose", "result": "markedly elevated levels"},
      {"measurement": "intracellular localization of Naglu fluorescence (co-localization with Lamp-1)", "setting": "[4]", "result": "localized predominantly within lysosomal vesicles"},
      {"measurement": "Naglu immunostaining in cerebral cortex / brain parenchyma", "setting": "wild-type rats [5]; 4 and 24 hours post treatment", "result": "positive staining"},
      {"measurement": "Naglu immunostaining in cerebellum and hippocampal region", "setting": "wild-type rats [5]; 24 hours post injection", "result": "strong Naglu signal"},
      {"measurement": "Bmax of binding/uptake", "setting": "[6]", "result": 1260, "unit": "nmol/h/mg"},
      {"measurement": "cellular internalization (intracellular Naglu activity)", "setting": "[6]", "result": "effectively internalized"},
      {"measurement": "Naglu activity in liver and brain tissue vs vehicle control", "setting": "Naglu KO mice [7]", "result": "dramatic increase"}
    ]}
  ]
}
